Assay results: a protein production outcome set (Wang et al. 2014)

Assay: label from the status in PepcDB records
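Note: failed if final PepcDB status was selected cloned or expressed and not failed if soluble or beyond.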

Row | Sequence | protein production
1 | MVSRLEHPAGGYKKVFESCEELAEPIPAHVSGKIPAWLSGSLLRMGPGLFEIGDEPFNHLFDGQALIHKFDLKDGRVTYHRKFIRTDAYVRAMTEKRVVITELGTAAYPDPCKNIFSRFFTYFQGTEVTDNCSVNIYPIGEDFYACTETNFITKVNPDTLETIKKVDLCNYLSVNGLTAHPHIEADGTVYNIGNCFGKNMSLAYNIVKIPPLQEEKSDPLAMSKVLVQFPSSERFKPSYVHSFGMTENHFVFVETPVKINLLKFLTSWSIRGSNYMDCFESNDRMGTWFHLAAKNPGKYINNPSQ | failed
2 | MIENTIYKEFIDKISELSDGIYPIITDLDNDLSYVPDKTADFFGFEAGEHTCFFEQLSSCVNDVDLPEYKREIRYRLNGEKPDDIFYVRMGKHTKEYMMGFYSDIFTGDDGHRYHVLVLRNENTLPDIDPYTYLYGQSKFERDINGYIMENRSVAIIEVEIGHIDEFNILYGSNFNTAIQRELALKFIYMMDGSTATYYMNNCKFVFVVKEADRALAESFYQKIADTIKSMYFFKCFKFEFDIYAACLILKDYDGDTSTVISKVEYTLDRAKELHSSDLLFFNDMVRFNGSSHIDIMKIIHQSVINSCDGFFVEFQPIVKACNGEIMGAEALVRWKKEPFGTVPPGLFIDWLEDTPAMYELGNYIMRTAISAASEFAKIKPGFFINVNASSEQLEKENFVKDTLAILKEYDFPPSQLWIEITERCRDLPISMIKKTVTAFREAGIHITMDDYGTGSSSSQMMLELPVEGIKIDMFFVKDILEEKKKQALVIGMINFANAADLKICIEGIENDNLESYLRQFDVTWFQGYHYSRSICQDELMKLLIKP | failed
3 | MRIPYIDCGMNSLFFITLLGSFFTVAQANSSSDLLELPATNSALAIKSVLMAMTPNNDAILVVGERGHIINWQNDDNWQQLQSPVSVAITDVTILSDGSKVAVGHDGVILKVDSNSTTWRKVFTGKEITQFQIAQLKQQYQSLEQVILQTQDEDELEELTYQLDDLTFAIEDNQLELKSGPNKPLLSVTSTSNDTLFASGAYGILLSSKDKGETWQLVSNHLDNPDRFHLNTVIATADDQLYIVGENGMGFHSTDVGQTWSVMTLPYSGSLFGILANTVKTHTISTDDINSTKNKTQLVAFGLQGNIMVSLDGGGNWQHIKLPRSTSLLGGNFSKQGKVYLVGHGGVIVSFYPENLSTLTIKKHPSGAALSSVLVKDNSLILAGQFGISQWPIEAEE | failed
4 | MATPVVTKTAWKLQEIVAHASNVSSLVLGKASGRLLATGGDDCRVNLWSINKPNCIMSLTGHTSPVESVRLNTPEELIVAGSQSGSIRVWDLEAAKILRTLMGHKANICSLDFHPYGEFVASGSQDTNIKLWDIRRKGCVFRYRGHSQAVRCLRFSPDGKWLASAADDHTVKLWDLTAGKMMSEFPGHTGPVNVVEFHPNEYLLASGSSDRTIRFWDLEKFQVVSCIEGEPGPVRSVLFNPDGCCLYSGCQDSLRVYGWEPERCFDVVLVNWGKVADLAICNDQLIGVAFSQSNVSSYVVDLTRVTRTGTVTQDPVQASQPQTQQTPNPGVSLRRIYERPSTTCSKPQRVKHNSESERRSPSSEDDKDERESRAEIQNAEDYNEIFQPKNSISRTPPRRSEPFPAPPEDDIATAKEASKPSPAMDVQLPVPSQEVPARPSVMTSTPAPKGEPVIIPATRNEPIGLKASDFLPAVKVPQQAELVDEDAMSQIRKGHDTMCVVLTSRHKNLDTVRAVWTTGDIKTSVDSAVAINDLSVVVDLLNIVNQKASLWKLDLCTTVLPQIEKLLQSKYESYVQTGCTSLKLILQRFLPLITDILAAPPSVGVDISREERLHKCRLCFKQLKSISGLVKSRSGLSGRHGSAFRELHLLMASLD | failed
5 | SLRREMQEILPGLFLGPYSSAMKSKLPVLQKHGITHIICIRQNIEANFIKPNFQQLFRYLVLDIADNPVENIIRFFPMTKEFIDGSLQMGGKVLVHGNAGISRSAAFVIAYIMETFGMKYRDAFAYVQERRFCINPNAGFVHQLQEYEAIYLAK | not failed
6 | MSRINKFVLTVSLLIFIMISAVACGIYTQMVKERVYSLKQSVIDTAFAVANIAEYRRSVAIDLINTLNPTEEQLLVGLRTAYADSVSPSYLYDVGPYLISSDECIQVKEFEKNYCADIMQVVKYRHVKNTGFISFDGKTFVYYLYPVTHNRSLIFLLGLERFSLLSKSLAMDSENLMFSLFKNGKPVTGDEYNAKNAIFTVSEAMEHFAYLPTGLYVFAYKKDVYLRVCTLIIFFAALVAVISGASCLYLVRRVINRGIVEKEAIINNHFERVLDGGLFFSAADVKKLYSMYNSAFLDDLTKAMGRKSFDEDLKALPEKGGYLCLFDVDKFKNINDTFGHLLGDEVLMKVVKILKSQIPVDKGKVYRFGGDEFAVIYTGGTLEELLSILKEIVHFQVGSINLSTSIGVAHSNECPTVERLKMLADERLYKSKKNGRAQISWQ | failed
7 | MPEVEDMPSIALHSVMASPNAEYVRWKAHGDFISQLNYYDSMKAVISSSNHEPTALVIGFTVGATDVKEKLNEIRNVGKNVMMGSSSASLALAKRQAECNRTVFRVHKGVKAFSFCRKKNLLATGGLDRIVRVWNPYLPGKPTGVLRGHMAPVMYVHVASEENKVFSVSADNTVKIWDLETHSCCCTVSSKASGIKGELTACLYLPGPRALCVATGTLALFHLKAGSVPEPHLLRSHQEPVVCCRYNPAFRQVVSCCEASVVKVWDLETGRWVSEFIGNAGITCLAFDSSGRRLVTGGRDGDLKIWSYNNGHCLHTLQHDENQNEVCDCTYMEVNRNGCVIAVGWDRRINVYFDIPRDFHHFRKPQPHWQDDLNHGHKEDILCVAQCPPFLLATSSYDGEIIVWNVISGHMYCKLNTPSPMDPREGPDRSVSRLTFLKTRLTKLDSTAASLISNGPGGSVSFWKLFSGSGLIANFTPAREKAQVSGIVVTSGDTVAYLADQHGFIYVYDIQEYGLWGAELQPPNSTHSWEVESQKHSFLKTFDVSEGAGKGLSSSLDCTVRLCSKDGAYIGTFGQNRPWDVYTPDSWGHPRVPLEILTDPQSMPTHLVLETDVPAGCSGGRQEQGHMTEEKVLFETEKTHNPPSPEGPVVEVEVKADKSQWSAFSHDRLLLSSKTLMQDKRLLSARRKPCWKVPELKWPSIYQALQCHELDFVSALREKPDLSVTGFDLLPDYRFPRGPTEYRQCSAELLFRSLPHAAHISSVPQAPAKLWGHKQN | failed
8 | MLEIPEDRCERHRLFKAIDDAFKAGDFDGLGKALGGSPGWFDERMPFELGLGHPLEYAIYWSPVGFISTLLDAGSDPNYQDHGGFPAIIAALSTDRADRLEVVRVLIEAGADPNMRGVNDWTPLHYSVGIRSAEAIHLLLAAGADPTLATRIDDYTTAFEEADKAGFEAGASLLRDAIARRGFNR | failed
9 | MAELLAAGPSGVAGAVARAMERSAPGSGASWYGGDHTDFRDGVFLREVIGVQVVVQEGGTAVPEAMTGLPPRPGGFTGRDRETEDLLRALDPDGAQSAAAPVASVSGLGGIGKTALAVETAHLARERGWFPGGILFIDLHGYDREPVTADRSLRTLLHALGIPPEHMPTTTDERAALYRSTLAVRAGERGGMLVLADNASSAEQVRPLLPGDFRHRVLVTSRDRLPQLGARLLPLDELGTREAYELLDRALRIADPHDGRVGDDPGTTGRLASLCGHLPLALQIAAALLAADPAKPVSELVAELAEAHDRLDHLDDGERSVRAAFELSYRRLPPEQARLLRLLALAPGPEVSDEVVAALVGADRPPVRDQHALARAHLVERGHTRGSWRLHDLVRVFGAGVVARAEGDAARARVLRHYLERARAADARLKPRTEDDEGTRPFRSREEALAWFDAERAGLVAAVQWATDRQLAADAVRLAGALGEYLDWRRRFDDSVTVCGAVCAAARRAGDEAAEAAAWNRTGTALRGNRRLREAYDAHRRAHDLYDALGHDNGRAMALSNLGAILGDVGQVDDAVDAFRLALGLFRRTGDRHSEAGVWNNLALILRKSGRVDEALDALRSALGLYRETGDRPREGRARHNYAVALNARGRTAEAVTACLDSLDICEEFEDWHGAARTLYALGLVHETAGDAERARVRMTQAADAYERAGSPKEAEQARRAARLTGPAPTGTPAPAAPPDRTADSGPPGPRPPGVPGNAGP | failed
10 | HKSMSKMKSTLKQFISMGNMLTAENNFFRQMQGLLSETTEIAAMTGGIIFLADKQEGHFTPTAFRWNGENIPVAEMPSLSITEDSFTTFQPVLEGKTIAGTLNKENIFHQLQDFLQPYLPLRFVAVPMKTHDKQLLGFLLLFNPYQLNAEREHSKIQLVNALVGSLSVSVETQQLLQEQKNLLNA | failed
11 | MKAYLGLYTARLETPARSLKEKRALIKPALERLKARFPVSAARLYGLDAWGYEVVGFTLLGNDPAWVEETMRAAARFLAEAGGFQVALEEFRLEAFELDGLL | not failed
12 | MCAMSQEHQNPTPLPQVSDMAPVNPPKNQRYPRAVDLSLIECHCCGLLNQVDSDHSEQAHSRHCIRCHSPLHVRKPRSLDRTLALVIAASILYIPANVLPMTMTDSLLGRQQDTIMSGVIYFWQNSDYLVAVVIFMASIFIPMLKLIILCFLLIAVRMQESSKWHFLPEHCALLYRIVEFVGRWSMIDVFVVALLTALIQIQSLATILAGPGAVAFGAVVVLTMFASLSFDPRIIWDNYYKAQAKQHDPLQTIDNTSSISVEQ | failed
13 | MIFMNMIFVDREKELQTLMQRLNSPTFELVIVYGRRRIGKTSLILRAISGRNDSVYYYATERNNLERFREVAQRKFPEVRYAREDWESLLHFLRDKVVIIDEFPYLIEEDKSILSTFQRIVDENRDSRTKLILLGSSISVMEDVLSYRSPLYGRRTASLKVGELKFRDLRHLGFSVEEAVKIYGFAGGVPMYLTRVTPPFLDWVNRELKRVDSFLRDEVDFLLRYEFREIGTYKEILRAISMGKNTLAEIRDYVKVGGEISSYIKKLERIELVTREVPVTESVRSKMGRYVIRDNFTNFWFRFVYPNLSLIEEGTYEITEGEYANYLGHVFERICREYVRDRYRVKKVGRQWWKDVEIDVMGLGNVKVAGECKWSEDVNPHSVLANLERKVERLGHTVDRYVVFARSFSTKEKMEKAELVDINDLNSWFMS | failed
14 | MSQSTHQSTDHKRQSQDKNQTHAYAKVWLYFMYYWMIFGIGCYFGQYLPMSWRKPLSLGLLILILATLFIKRARKYGLVISHIYAIIVGLLSYALFTTYLQNLGAEVFYKNIILAIGAFIAFGIIGYFLIKDASSMGKYLFVTLIALIIAGIIGIFINNPIFHTVITIVSLLLFLLYTLYDFNRMKRGQFSPREMGFNLFINLLNIIEDILSLANRFKN | failed
15 | MSDSLHTPEEPRPGPGEQLAHAHDGSLRHTRAKGEPRFPDGPKADPAGSHFERRIRSFQPRRSRVTAGQADALQRLWPKWGLDIDGHALDLTELFGNTHPVVLEIGFGMGEATARMAAEDPDTGILAVDVHTPGQGNLLNLADQHGLTNIRVANGDAIILLREMLPPDSLDGLRVYFPDPWPKKRHHKRRLIQPEFLTLAATRLRPGALVHCATDWEPYAEQMLDVLTAHPDFENTQPTGGYAPRPGFRPLTRFEGQGLDKGHVVNDLLFRRVQPRDQHRDLPPSATEAD | failed
16 | MKKTFNLVATAAAGIEAVVGKELRNLGLDCQVENGRVLFKGNIETIAKSNLWLRSADRIKIVVGEFPARTFEELFQGVYALDWENYLPLGCQFPVAKAKSVKSKLHNEPSIQGITKKAIVKKLQHYFHRPDSVPLPENGPEFKIEISLLKDQARVMIDTTGPSLFKRGYRTEKGGAPIKENMAAAIILLSNWFPDKPFVDPTCGSGTFCIEAAMIGMNIAPGFNRDFAFEEWPWVDEALVTRVRNEADEQADYDIQLDISGFDFDGRMVEIARKNAREVGLEDVVKLKQMRLQDFKTNKINGVLISNPPYGERLLDDKAVDILYNEMGETFAPLKTWSQFILTNDTDFEQKFGRKADKKRKLYNGSLKVDLYQFYGQRVKRVLR | not failed
